Laboratory results from patent publication US10660939.
Blank lines part the entries; values can stand above or below the binder they belong to. Positions of bridges follow the written chain, without caps; N, C: chain ends. Non-standard residues stand in square brackets, D forms with d. Dab = NCC[C@H](N)C(=O)O

Key:
[1] = biological target: human melanocortin receptor-4 (human) (UniProt P32245); experiment: competition with [I125]-NDP-α-MSH, hMC4r HEK-293 membranes
[2] = biological target: human melanocortin receptor-4 (human) (UniProt P32245); experiment: cell-based or functional assay
[3] = biological target: human melanocortin receptor-4 (human) (UniProt P32245); experiment: competition with Eu-NDP-α-MSH, hMC4r HEK-293 membranes
[4] = biological target: human melanocortin receptor-4 (human), P32245; experiment: competition with [I125]-NDP-α-MSH, hMC4r HEK-293 membranes; settings: remark: other sources report otherwise
Chain of human melanocortin receptor-4 (human), P32245 (P32245 whole entry): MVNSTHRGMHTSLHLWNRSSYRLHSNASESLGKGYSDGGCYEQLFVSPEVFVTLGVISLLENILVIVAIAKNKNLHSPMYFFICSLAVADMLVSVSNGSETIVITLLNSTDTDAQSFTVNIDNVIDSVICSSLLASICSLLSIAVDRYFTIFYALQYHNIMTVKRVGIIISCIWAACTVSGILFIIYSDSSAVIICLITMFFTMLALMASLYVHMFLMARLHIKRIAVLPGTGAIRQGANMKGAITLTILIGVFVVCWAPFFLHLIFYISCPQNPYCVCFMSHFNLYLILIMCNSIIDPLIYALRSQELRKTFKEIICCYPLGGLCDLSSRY

Chain of human melanocortin receptor-4 (human) (P32245 whole entry): as above

B1: Peptide No. 136 (peptide)
peptide: RXXFRWX
modifications: N-terminal Ac; Dab 2 (X); Dab 3 (X); D-Phe 4; hGlu 7 (X); cyclo(Dab 2-hGlu 7); C-terminal OH
Ki [1]: 35 nM

B2: Peptide No. 129 (peptide)
peptide: RXXFRWX
modifications: N-terminal Ac; Dab 2 (X); Dab 3 (X); D-Phe 4; hGlu 7 (X); cyclo(Dab 2-hGlu 7); C-terminal NH2
EC50 (cAMP) [2]: 0.065 nM | intrinsic activity (cAMP, NDP-α-MSH is 100%) [2]: 96% | Ki [3]: 4 nM

B3: Peptide No. 127 (peptide)
peptide: RXXFRWX
modifications: N-terminal Ac; hGlu 2 (X); Dab 3 (X); D-Phe 4; Dab 7 (X); cyclo(hGlu 2-Dab 7); C-terminal NH2
EC50 (cAMP) [2]: 0.06 nM | intrinsic activity (cAMP, NDP-α-MSH is 100%) [2]: 98% | Ki [3]: 2 nM

B4: Peptide No. 144 (peptide)
peptide: RXXFRWX
modifications: N-terminal Ac; hGlu 2 (X); Dab 3 (X); D-Phe 4; Dab 7 (X); cyclo(hGlu 2-Dab 7); C-terminal OH
Ki [1]: 45 nM

Next, values leading:

Ki [4]: 4 nM
Binder: Ac-RD[Dab][dF]RWK-NH2 (lactam 2-7) [Peptide No. 163]

Ki [4]: 57 nM
Binder: Ac-RD[Dab][dF]RWK-OH (lactam 2-7) [Peptide No. 164]
